The target of one assay is T1, ECF22_1147.
T1 chain: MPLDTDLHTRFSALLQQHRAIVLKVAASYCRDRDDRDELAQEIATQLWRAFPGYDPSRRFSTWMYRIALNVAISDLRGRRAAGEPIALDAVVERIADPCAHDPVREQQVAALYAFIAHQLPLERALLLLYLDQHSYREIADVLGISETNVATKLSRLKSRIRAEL

The next assay deals with T2, ECF33_423.
T2 chain: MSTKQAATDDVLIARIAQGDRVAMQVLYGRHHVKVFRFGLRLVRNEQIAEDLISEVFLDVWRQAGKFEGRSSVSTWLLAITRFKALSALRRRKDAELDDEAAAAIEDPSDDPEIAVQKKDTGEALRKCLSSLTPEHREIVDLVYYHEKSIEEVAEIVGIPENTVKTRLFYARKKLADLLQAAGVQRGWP

In another assay the target is T3, ECF28_1040.
T3 chain: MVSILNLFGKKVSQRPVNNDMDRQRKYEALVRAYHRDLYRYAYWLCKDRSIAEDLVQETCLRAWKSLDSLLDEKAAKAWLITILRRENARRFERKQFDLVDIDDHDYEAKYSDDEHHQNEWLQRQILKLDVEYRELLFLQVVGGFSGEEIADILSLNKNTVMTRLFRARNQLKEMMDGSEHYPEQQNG

The target of the next assay is T4, ECF15_524.
T4 chain: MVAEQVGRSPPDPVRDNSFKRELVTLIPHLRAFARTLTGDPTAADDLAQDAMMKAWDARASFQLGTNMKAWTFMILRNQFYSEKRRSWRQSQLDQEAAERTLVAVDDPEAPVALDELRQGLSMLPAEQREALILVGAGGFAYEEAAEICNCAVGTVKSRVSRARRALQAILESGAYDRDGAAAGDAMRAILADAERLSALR

In another assay the target is T5, ECF16_3622.
T5 chain: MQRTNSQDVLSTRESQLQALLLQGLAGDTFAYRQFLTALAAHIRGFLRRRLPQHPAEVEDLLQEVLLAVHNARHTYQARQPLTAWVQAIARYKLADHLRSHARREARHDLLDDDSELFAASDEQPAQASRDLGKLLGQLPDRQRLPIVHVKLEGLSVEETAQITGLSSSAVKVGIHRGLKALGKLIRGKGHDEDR

A further assay concerns the target T6, ECF14_3200.
T6 chain: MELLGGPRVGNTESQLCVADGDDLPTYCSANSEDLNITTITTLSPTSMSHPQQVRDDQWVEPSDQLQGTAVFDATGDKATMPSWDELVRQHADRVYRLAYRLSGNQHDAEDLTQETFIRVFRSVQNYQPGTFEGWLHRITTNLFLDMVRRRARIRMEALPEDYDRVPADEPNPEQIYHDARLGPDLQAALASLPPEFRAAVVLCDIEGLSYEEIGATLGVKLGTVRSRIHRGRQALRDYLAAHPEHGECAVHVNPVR

Another assay has as its target T7, ECF38_1322.
T7 chain: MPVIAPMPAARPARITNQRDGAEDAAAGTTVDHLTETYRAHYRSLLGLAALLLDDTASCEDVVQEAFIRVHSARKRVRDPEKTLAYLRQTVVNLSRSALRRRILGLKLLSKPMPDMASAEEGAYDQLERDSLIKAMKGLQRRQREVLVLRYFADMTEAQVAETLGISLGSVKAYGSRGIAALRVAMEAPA

In the next assay the target is T8, ECF33_375.
T8 chain: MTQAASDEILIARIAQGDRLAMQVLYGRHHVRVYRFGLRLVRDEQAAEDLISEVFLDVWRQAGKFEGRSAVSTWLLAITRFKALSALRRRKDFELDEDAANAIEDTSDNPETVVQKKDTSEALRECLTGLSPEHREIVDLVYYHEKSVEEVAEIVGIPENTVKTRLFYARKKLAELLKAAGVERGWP

A further assay addresses T9, ECF15_436.
T9 chain: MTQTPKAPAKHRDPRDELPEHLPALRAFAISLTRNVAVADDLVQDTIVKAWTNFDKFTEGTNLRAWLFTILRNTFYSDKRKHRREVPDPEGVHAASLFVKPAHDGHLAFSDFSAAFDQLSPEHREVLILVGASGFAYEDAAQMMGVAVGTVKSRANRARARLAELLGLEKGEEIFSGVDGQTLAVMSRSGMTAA

The target in another assay is T10, ECF17_1691.
T10 chain: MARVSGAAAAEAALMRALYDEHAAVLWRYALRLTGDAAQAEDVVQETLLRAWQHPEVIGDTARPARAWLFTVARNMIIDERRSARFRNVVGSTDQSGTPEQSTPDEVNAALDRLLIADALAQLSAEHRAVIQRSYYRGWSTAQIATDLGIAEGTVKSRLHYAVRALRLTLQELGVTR

The target of another assay is T11, ECF28_1088.
T11 chain: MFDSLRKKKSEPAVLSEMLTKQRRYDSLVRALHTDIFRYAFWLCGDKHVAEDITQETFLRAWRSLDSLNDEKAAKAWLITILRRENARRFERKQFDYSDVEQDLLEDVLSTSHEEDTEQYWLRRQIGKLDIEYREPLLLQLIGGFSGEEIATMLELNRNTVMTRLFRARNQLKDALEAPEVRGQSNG

The next assay deals with T12, ECF04_1609.
T12 chain: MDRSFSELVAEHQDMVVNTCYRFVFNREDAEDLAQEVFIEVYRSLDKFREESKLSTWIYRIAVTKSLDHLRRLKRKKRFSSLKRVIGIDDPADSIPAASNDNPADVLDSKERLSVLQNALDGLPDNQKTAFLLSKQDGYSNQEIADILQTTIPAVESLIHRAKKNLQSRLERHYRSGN

The next assay deals with T13, ECF14_1324.
T13 chain: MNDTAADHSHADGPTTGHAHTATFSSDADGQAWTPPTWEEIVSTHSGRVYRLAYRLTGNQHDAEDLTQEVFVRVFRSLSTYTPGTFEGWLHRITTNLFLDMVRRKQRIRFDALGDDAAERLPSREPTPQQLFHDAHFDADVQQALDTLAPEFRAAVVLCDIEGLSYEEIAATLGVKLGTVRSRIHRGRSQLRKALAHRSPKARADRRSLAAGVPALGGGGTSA

The target of another assay is T14, ECF37_2513.
T14 chain: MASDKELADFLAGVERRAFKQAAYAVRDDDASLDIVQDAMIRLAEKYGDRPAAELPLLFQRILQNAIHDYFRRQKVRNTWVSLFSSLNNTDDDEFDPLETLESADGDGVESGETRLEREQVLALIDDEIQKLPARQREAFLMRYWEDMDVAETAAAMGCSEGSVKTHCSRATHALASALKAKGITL

B1: AS16_3622 (protein)
chain: MMKTDELISLLATAEGPVDRHALARRLGLALLAGLLGALLLTVALYGVRSDLAEVARTPLFWAKVALPTSLALLGLWLTQRLARPGVRGGALWGLLGVPLLLVWLGAAISLFGAPPEARADLIFGRTWRTCALNITLLSTPVFIAVFWALRGLAPTRLRQAGAAGGLLAGSTATLVYCLHCPEMGVPFWGLWYLLGMLVPTLLGAVLGPRLLRW
In the case of B1, the fold repression with ECF22_1147 came to 8.27; in the assay with ECF33_423, 1.87; with ECF28_1040 it was 3.02; with ECF15_524, 3.36; in the assay with ECF16_3622 it was 254; with ECF14_3200 it was 8.73. In addition, the fold repression amounted to 2.34 with ECF38_1322; 1.17 with ECF33_375; 4.75 in the assay with ECF15_436; 2.43 with ECF17_1691; 2.18 in the assay with ECF28_1088; 1.95 in the assay with ECF04_1609. In addition, the fold repression with ECF14_1324 turned out to be 8.8; in the assay with ECF37_2513, 4.97.

B2: AS02_915 (protein)
chain: MEKTGQEWVSASVDGETDRQTLAELAADTDSHAKWQRYHLMGDAMRDELPQAMPLDLSARIAAALEDEPTILAPKVEREATQAPSRAVVVPFMRQLGQYGIAAAVALMAVVGVQNYQSTQDDAPLPVLNTRPLVGTATPVSLQTGPVANQNQGNANDQLLEQRRRINAYLQDHMLQQRLNTGAVVDDNSEVTPIPVNR
As for B2, the fold repression in the assay with ECF22_1147 was 4.49; in the assay with ECF33_423 it was 2.28; with ECF28_1040, 2.03; with ECF15_524, 2.55; in the assay with ECF16_3622 it was 4.3; in the assay with ECF14_3200, 6.23. The fold repression with ECF38_1322 was 2.24; with ECF33_375 it was 2.44; in the assay with ECF15_436 it was 3.47; with ECF17_1691, 2.73; in the assay with ECF28_1088 it was 2.38; in the assay with ECF04_1609 it was 3.74. The figures for the fold repression in the assay with ECF14_1324 and in the assay with ECF37_2513 were 4.42 and 2.48, respectively.

B3: AS16_973 (protein)
chain: MKTDDLIALLAAGEGPVPRHAVGRRMAVAALGGLTAALLLTITLYGVRSDITEVAQTPLFWGKVAFPTSLALIGLWLTSRLARPGGKGAAGWKMLGLPLLLVWCGAAVSIAGAPVDARADLLFGRTWRTCALNIALLSVPAFVTVFWALKGLAPTRLRLAGAAGGLLAGSSATVAYCLHCPEMGVPFWGVWYVLGMLVPTVLGAWWGPRMLRW
For the molecule B3, the fold repression in the assay with ECF22_1147 stood at 1.2; with ECF33_423, 0.683; with ECF28_1040, 1.39; in the assay with ECF15_524, 0.668; with ECF16_3622, 57; in the assay with ECF14_3200 it was 0.918. Moreover, the fold repression with ECF38_1322 worked out at 0.629; with ECF33_375, 0.373; with ECF15_436 it was 0.884; with ECF17_1691 it was 0.852; in the assay with ECF28_1088 it was 1.04; in the assay with ECF04_1609, 0.632. The fold repression in the assay with ECF14_1324 worked out at 0.887; with ECF37_2513, 1.04.

B4: AS14_1324 (protein)
chain: MSGSRPEPEGHLAEQHLGDRLSALVDGELGHDARERVLAHVATCPKCKAEVDAQRRLKNVFAEAAPPAPSESFLARLQGLPGGGDSDGGGSPFSGLPGGFGASAASGVFGPRRDERFEFDYVPAGSHTPVLPSATSGRGFRIHEVGRHESDRSASRGLRFAFAAAGAVSLAAIALGGVTLGTPDTTTEARGSGSGSNVTPLRTPGSAAATGSESQRRRTAGPLLGQGQRALGDLPVASTTASAPLLPGMPAPAGGDARQQAVRALTTPVTAGAAAMSPLIRPLEAVPPLSLSSWSAAPEVRPPGLLAAPDPAPSPYPAASPAASSSPLR
As for B4, the fold repression with ECF22_1147 worked out at 8; with ECF33_423, 4.28; with ECF28_1040 it was 4.3; in the assay with ECF15_524, 5.32; with ECF16_3622 it was 6.46; with ECF14_3200, 35.5. The fold repression worked out at 2.76 with ECF38_1322; 3.42 in the assay with ECF33_375; 6.5 with ECF15_436; 4.81 in the assay with ECF17_1691; 3.46 with ECF28_1088; 4.65 with ECF04_1609. Besides, the figures for the fold repression in the assay with ECF14_1324 and in the assay with ECF37_2513 were 47.4 and 3.89, respectively.

B5: AS15_436 (protein)
chain: MAQSTEPKASPQEATAKGGDNTKGKSRKELQQQIDENLRRVYEEALVQEVPDRFAMLLDQLRQKGTGK
As to B5, the fold repression came out at 6.02 with ECF22_1147; 3.04 with ECF33_423; 4.28 with ECF28_1040; 33.1 with ECF15_524; 6.45 in the assay with ECF16_3622; 9.47 in the assay with ECF14_3200. Further, the fold repression in the assay with ECF38_1322 turned out to be 2.66; with ECF33_375, 2.28; in the assay with ECF15_436, 46.1; in the assay with ECF17_1691 it was 4.15; in the assay with ECF28_1088, 2.98; with ECF04_1609, 5.41. The fold repression is 9 with ECF14_1324 and 5.1 with ECF37_2513.

B6: AS15_524 (protein)
chain: MNFGVEDMIEHVPMEDKRKGAAALDEARLRQQAIGVKLRQMFDEVVNEPVPDEFLAILRKAERPAGGE
B6: the fold repression was determined as 6.96 in the assay with ECF22_1147; 6.68 with ECF33_423; 4.67 in the assay with ECF28_1040; 31.4 with ECF15_524; 7.87 with ECF16_3622; 12.9 in the assay with ECF14_3200. Besides, the fold repression with ECF38_1322 was 4.8; with ECF33_375 it was 4.38; with ECF15_436 it was 16.7; with ECF17_1691, 5.16; with ECF28_1088 it was 3.64; in the assay with ECF04_1609 it was 6.89. Further, the values for the fold repression with ECF14_1324 and with ECF37_2513 were 10.5 and 4.17, respectively.

Values taken from paper PMC3817407.
